The test concerns the target SMC3-474/702 hinge domain (GAL4:SMC3 fusion in pBIND) (UniProt Q9CW03). Description: two-hybrid; mammalian two-hybrid (Promega Checkmate) in 293 cells: SMC3-474/702 in pBIND, SMC1-474/663 in pACT, pG5/luc reporter, with Hinderin-V5 expression vector (0.3 or 1 ug/ml) or empty pcDNA3.1; luciferase after 48 h, corrected by Renilla.
UniProt Q9CW03, sequence (Q9CW03 474-702): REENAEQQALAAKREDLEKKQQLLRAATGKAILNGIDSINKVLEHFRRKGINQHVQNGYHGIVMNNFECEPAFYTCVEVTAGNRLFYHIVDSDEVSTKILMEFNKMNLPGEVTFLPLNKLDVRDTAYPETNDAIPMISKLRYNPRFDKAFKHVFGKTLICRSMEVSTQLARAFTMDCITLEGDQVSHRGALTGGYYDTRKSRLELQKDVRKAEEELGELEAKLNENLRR

“Hinderin-V5 (complete Hinderin coding region with V5 tag) (from UniProt Q86T90 1-577) (natural protein)”: the SMC1/SMC3 interaction (luciferase activity) in cells overexpressing Hinderin, percent came to 34%.

(Values after article PMC547899.)
